How the values were obtained:
[1] = biological target: T1, GA2: H-(GA)2HHHHHH-NH2; assay: indirect ELISA, His-tagged peptide coated at 50 ug/ml, antibody titrated [also D00024 FIG. 7F]
T1 peptide: H-GAGAHHHHHH-NH2
From the text: (§1) In brief, dipeptide repeat proteins were synthesized and purified by Schafer-N (Copenhagen, Denmark): GA₂₀: H-(GA)₂₀HHHHHH-NH₂; GA₁₀: H-(GA)₁₀HHHHHH-NH₂; GA₆: H-(GA)₆HHHHHH-NH₂; GA₅: H-(GA)₅HHHHHH-NH₂; GA₄: H-(GA)₄HHHHHH-NH₂; GA₃: H-(GA)₃HHHHHH-NH₂; GA₂: H-(GA)₂HHHHHH-NH₂; GP₂₀: H-(GP)₂₀HHHHHH-NH₂; GP₁₀: H-(GP)₁₀HHHHHH-NH₂; GP₆: H-(GP)₆HHHHHH-NH₂; GP₅: H-(GP)₅HHHHHH-NH₂; GP₄: H-(GP)₄HHHHHH-NH₂; GP₃: H-(GP)₃HHHHHH-NH₂; GP₂: H-(GP)₂HHHHHH-NH₂. GR₂₀: H-(GR)₂₀HHHHHH-NH₂; GR₁₀: H-(GR)₁₀HHHHHH-NH₂; GR₆: H-(GR)₆HHHHHH-NH₂; GR₅: H-(GR)₅HHHHHH-NH₂; GR₄: H-(GR)₄HHHHHH-NH₂; GR₃: H-(GR)₃HHHHHH-NH₂; GR₂: H-(GR)₂HHHHHH-NH₂; PA₂₀: H-(PA)₂₀HHHHHH-NH₂; PA₁₀: H-(PA)₁₀HHHHHH-NH₂; PA₆: H-(PA)₆HHHHHH-NH₂; PA₅: H-(PA)₅HHHHHH-NH₂; PA₄: H-(PA)₄HHHHHH-NH₂; PA₃: H-(PA)₃HHHHHH-NH₂; PA₂: H-(PA)₂HHHHHH-NH₂; PR₂₀: H-(PR)₂₀HHHHHH-NH₂; PR₁₀: H-(PR)₁₀HHHHHH-NH₂; PR₆: H-(PR)₆HHHHHH-NH₂; PR₅: H-(PR)₅HHHHHH-NH₂; PR₄: H-(PR)₄HHHHHH-NH₂; PR₃: H-(PR)₃HHHHHH-NH₂; PR₂: H-(PR)₂HHHHHH-NH₂. 96-well microplates (Corning Incorporated, Corning, USA) were coated with dipeptide repeat protein peptides at a concentration of 50 μg/ml in coating buffer (15 mM Na₂CO₃, 35 mM NaHCO₃, pH 9.42). Non-specific binding sites were blocked for 1 h at room temperature with PBS/0.1% Tween®-20 containing 2% BSA (Sigma-Aldrich, Buchs, Switzerland). Primary antibodies were diluted to the indicated concentrations and incubated 1 h at room temperature, followed by incubation with a donkey anti-human IgG Fcγ-specific antibody conjugated with HRP (Jackson ImmunoResearch Laboratories, Inc., West Grove, USA). Binding was determined by measurement of HRP activity in a standard colorimetric assay. EC₅₀ values were estimated by non-linear regression using GraphPad Prism software (San Diego, USA).

[2] = biological target: T2, GA3: H-(GA)3HHHHHH-NH2; assay: as above
T2 peptide: H-GAGAGAHHHHHH-NH2
From the text: as §1

[3] = biological target: T3, GA10: H-(GA)10HHHHHH-NH2 (C-terminal amide); assay: as above
T3 peptide: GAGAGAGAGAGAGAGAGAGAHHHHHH
From the text: as §1

[4] = biological target: T4, (GA)15: H-CHHHHHH(GA)15-OH; assay: indirect ELISA, uncoupled peptide coated, antibody titrated [also D00013 FIG. 3D]
T4 construct: synthetic, not coupled to BSA; also called poly-GA DPR protein peptide
T4 peptide: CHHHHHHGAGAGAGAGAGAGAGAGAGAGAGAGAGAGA
Protocol: (§2) In brief, dipeptide repeat proteins were synthesized and purified by Schafer-N(Copenhagen, Denmark): (GA)₁₅: H-CHHHHHH(GA)₁₅-OH; (GP)₁₅: H-C(GP)₁₅-OH; (GR)₁₅: H-C(GR)₁₅-OH; (PA)₁₅: H-C(PA)₁₅-OH; (PR)₁₅: H—C(PR)₁₅-OH. DPR protein peptides were then conjugated via a bifunctional linker (SMCC) to bovine serum albumin (BSA). 96-well microplates (Corning Incorporated, Corning, USA) were coated with BSA-coupled or -uncoupled dipeptide repeat protein peptides at a concentration of either 5 μg/ml or 20 μg/ml in coating buffer (15 mM Na₂CO₃, 35 mM NaHCO₃, pH 9.42). Non-specific binding sites were blocked for 1 h at room temperature with PBS/0.1% Tween®-20 containing 2% BSA (Sigma-Aldrich, Buchs, Switzerland). Primary antibodies were diluted to the indicated concentrations and incubated 1 h at room temperature, followed by incubation with a donkey anti-human IgG Fcγ-specific antibody conjugated with HRP (Jackson ImmunoResearch Laboratories, Inc., West Grove, USA). Binding was determined by measurement of HRP activity in a standard colorimetric assay. EC₅₀ values were estimated by non-linear regression using GraphPad Prism software (San Diego, USA).

[5] = biological target: T5, GR2: H-(GR)2HHHHHH-NH2; assay: indirect ELISA, His-tagged peptide coated at 50 ug/ml, antibody titrated [also D00026 FIG. 7L]
T5 peptide: H-GRGRHHHHHH-NH2
Protocol: as §2, with “96-well” for “In brief, dipeptide repeat proteins were synthesized and purified by Schafer-N(Copenhagen, Denmark): (GA)₁₅: H-CHHHHHH(GA)₁₅-OH; (GP)₁₅: H-C(GP)₁₅-OH; (GR)₁₅: H-C(GR)₁₅-OH; (PA)₁₅: H-C(PA)₁₅-OH; (PR)₁₅: H—C(PR)₁₅-OH. DPR protein peptides were then conjugated via a bifunctional linker (SMCC) to bovine serum albumin (BSA). 96-well”, “with” for “with BSA-coupled or -uncoupled”, “50” for “either 5 μg/ml or 20”
High affinity binding was detected for poly-GA DPRs harboring 10 or 20 (GA)-repeats, reflected in an EC₅₀ in the subnanomolar or low nanomolar range (FIGS. 7A, 7C-7I).

[6] = biological target: T6, GP10: H-(GP)10HHHHHH-NH2 (C-terminal amide); assay: indirect ELISA, coated His-tagged peptide; indirect ELISA, peptide coated directly on the plate
T6 peptide: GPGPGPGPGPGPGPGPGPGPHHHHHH
From the text: as §1

[7] = biological target: T7, GP5: H-(GP)5HHHHHH-NH2; assay: as above
T7 peptide: H-GPGPGPGPGPHHHHHH-NH2
From the text: as §1

[8] = biological target: T8, GP6: H-(GP)6HHHHHH-NH2; assay: as above
T8 peptide: H-GPGPGPGPGPGPHHHHHH-NH2
From the text: as §1

B1: NI-308.15O7 (antibody, V domains shown)
VH: QVQLVESGGGVVQPGRSLRLSCAASGFTFSNHAMHWVRQAPGKGLEWVAVISYDGENTYYADSIEGRFTISRDNFKNTLFLQMYSLTADDTAMYFCARGGRRGHFTSYYLDYWGQGTLVTVSS
VL: CDIQMTQSPSSLSASVGDRVTITCRASQNIDKYLNWYQQIPGKAPKLLIYAASSLHSGVPSRFSGSGSGTDFSLTISSLQPEDFAIYYCQQSYSSFRTFGQGTKLEIK
In the case of B1, the binding result [1] is reported as “no binding (tested: about 4x10^5 pM (last point))”, the binding result [2] is reported as “no binding (tested: about 4x10^5 pM (last point))” and the EC50 [3] is reported as 0.37 nM.

B2: NI-308.28G1 (antibody, V domains shown)
VH: QVQLQESGPRLVKPSETLSLTCTVAGGSVNSYYWTWIQQSPGKGLEWLGRIYIAGRTNYNPSLTSRIALSVDTSRNQLSLKLTSVTAADTAIYYCARWGAESGDYYYGVDVWGPGTLVTVSS
VL: EIVMTQSPLSLPVTPGEPASISCKSSEGLLHSNGYTYLDWYLQKPGQAPQLLIFLASNRAAGVPDRFSGSGSGTDFTLKISRVEAEDVGVYYCMQAIQSPWTFGPGTKVEIK
notes: Recombinant complete human IgG1, kappa
In the case of B2, the EC50 [4] is reported as 2 nM.

B3: NI-308.6B11 (antibody, V domains shown)
VH: EVQLVQSGAEVKRPGASVKVSCKVSGYTLTELSMHWVRQAPGKGLEWMGGFDPEDGETVYAQKFQGRVTMTEDTSTDTAYMELSSLRSEDTALYHCATYGSSWHWNEGNEGSYYFDYWGQGTLVTVSS
VL: CDIQMTQSPSSLSASVGDRVTITCQASQDISIYLNWYQQKPGKAPKLLIYDASNLETGVPSRFSGSGSGTDFTFTISGLQPEDVARYYCQQYDDLPITFGQGTRLEIK
notes: as for B2
B3: no binding (tested: about 4x10^5 pM (last point)) [5].

B4: NI-308.5G2 (antibody, V domains shown)
VH: EVQLVQSGADLRNPGASVTVSCTASGYHFADNAINWLRQAPGQRLEWMGWINIYSGNTKYSQNFQGRVTFTRNTSASTAFMHLRSLRSEDTAVYFCARDPDSSGYYLPYFDYWGQGTLVTVSS
VL: DIQLTQSPDSLTLSLGERATINCKSSQSVFYNSNNKNYLAWYQQKPGQPPKLLMYWASTRESGVTDRFSGSGSGTDFTLTITNLQAEDVAVYYCQQFYSSPLTFGGGTKVEIK
notes: as for B2
B4 was tested, and the EC50 [6] was 0.94 nM, the EC50 [7] was over 200 nM and the EC50 [8] was 26.8 nM.

— US20200010567A1 (NEURIMMUNE, published 2020)
